Where “and” joins values, the source holds several entries; their conditions need not be identical. Identical values can stand only once. Ends that are not written are not given here.
Columns and labels:
prothrombin = molecular target: T1, prothrombin (Homo sapiens, UniProt P00734); experiment: Purification of prothrombin from PTC eluate on QLWGSH-A-Totda-Toyopearl; type: binding; details: SDS-PAGE and western blot; released with 1 M NaCl
T1 construct: from tissue
Procedure: Human pooled plasma was processed to PTC eluate by standard manufacturing procedures as indicated in Example 1. Approximately 1.0 ml of PTC eluate was injected onto the peptide resin QLWGSH-A-Totda-Toyopearl (FIG. 2 B). The column was washed with equilibration buffer containing 1.0 M NaCl and then containing 3.0 M NaCl. Acid treatment (2.5% acetic acid) was used to release protein from peptide resin.

thrombin = molecular target: T2, thrombin (Homo sapiens, UniProt P00734); experiment: Purification of α-thrombin from activated PTC eluate on QLWGSH-A-Totda-Toyopearl; type: binding; details: SDS-PAGE and western blot
T2 construct: from tissue
Procedure: Human pooled plasma was processed to PTC eluate by standard manufacturing techniques. In brief, DEAE-Sephadex resin was added to post cryoprecipitate eluant and loosely bound protein was washed away with a low salt buffer. Higher concentrations of NaCl eluted the fraction called PTC eluate which contains prothrombin and the vitamin K-dependent coagulation protease zymogens (factors VII, IX, X, protein C and protein S). A sample of PTC eluate was activated in the presence of 25% (w/w) sodium citrate for 4 days at room temperature. Approximately 1.0 ml of activated PTC eluate was injected onto the peptide resin QLWGSH-A-Totda-Toyopearl (FIG. 2 A). The column was washed with equilibration buffer (10 mM HEPES, pH 6.8, 1.0 mM EGTA and 0.1% v/v Tween-20) containing 1.0 M NaCl and then washed further with equilibration buffer containing 3.0 M NaCl. Acid treatment (2.5% acetic acid) was used to release protein from the peptide resin.

α-thrombin = molecular target: T3, α-thrombin (Homo sapiens, UniProt P00734); experiment: Confirmatory binding assay in column chromatographic format, peptides synthesized on A-Totda-Toyopearl; details: for Absorbance, 280 nm 2% Acetic Acid: integration of A280
T3 construct: α-Thrombin is the active form of the plasma serine protease zymogen, prothrombin; purchased Enzyme Research Labs (South Bend, Ind.)
Procedure: Confirmatory binding assays were performed in a column chromatographic format on a microbore HPLC using individual peptide sequences synthesized directly onto the Toyopearl 650 M Chelate resin which had been modified with Totda followed by an alanine residue (A-Totda-Toyopearl), at a final substitution density of 0.2 mmol/g resin. […] The endpoint was a dose-dependent increase in the acid eluate in the thrombin contactings, and quantification was by integration of the absorbance at 280 nm.

QLWGSH (not fully specified (C-terminus))
binding of prothrombin from unactivated PTC eluate (in words) (prothrombin): prothrombin bound the peptide | binding and enrichment of thrombin from activated PTC eluate (in words) (thrombin): bound and enriched thrombin | Absorbance, 280 nm 2% Acetic Acid (α-thrombin; 50 μg α-thrombin applied): 1.54 and 1.39 | Absorbance, 280 nm 2% Acetic Acid (α-thrombin; 100 μg α-thrombin applied): 3.23 and 2.09 | Absorbance, 280 nm 2% Acetic Acid (α-thrombin; 200 μg α-thrombin applied): 6.92 and 3.71 | dose dependence of thrombin in the acid eluant (in words) (α-thrombin; 50, 100 and 200 μg α-thrombin): dose dependent increase | binding of thrombin to peptide resin (in words) (α-thrombin; summary of Table 2): bound thrombin
